Key:
[1] = molecular target: Ec-DHDPS (dimer) (Escherichia coli) (UniProt P0A6L2); settings: cited from earlier work
[2] = molecular target: the molecule itself; assay: AUC; sedimentation velocity, 40,000 rpm, 20°C, 20 mM Tris-HCl pH 8.0, 150 mM NaCl; Sp-DHDPS at 4.5 µM and at 740 nM; c(s) and c(M) distributions (SEDFIT)
[3] = molecular target: the molecule itself; assay: AUC; sedimentation equilibrium, 10,000 and 18,000 rpm, 20°C, 20 mM Tris-HCl pH 8.0, 150 mM NaCl; 296, 355 and 740 nM Sp-DHDPS; global fit to a dimer-tetramer model (SEDPHAT); tetramer to dimers
purified protein [4] = substrate: N[C@@H](CC=O)C(=O)O; assay: purified protein; settings: co-substrate pyruvate 0.5-16 mM, 250 mM HEPES pH 8.0, 30 °C, 0.2 mM NADPH, 20 nM enzyme, global ping-pong fit without substrate inhibition
Description: (§1) DHDPS-DHDPR coupled assay, NADPH oxidation on Sp-DHDPS (dihydrodipicolinate synthase)

purified protein [5] = substrate: CC(=O)C(=O)O; assay: purified protein; settings: co-substrate (S)-ASA 0-0.48 mM, 250 mM HEPES pH 8.0, 30 °C, 0.2 mM NADPH, 20 nM enzyme, global ping-pong fit without substrate inhibition
Description: as §1

Chain of Ec-DHDPS (dimer) (P0A6L2 whole entry): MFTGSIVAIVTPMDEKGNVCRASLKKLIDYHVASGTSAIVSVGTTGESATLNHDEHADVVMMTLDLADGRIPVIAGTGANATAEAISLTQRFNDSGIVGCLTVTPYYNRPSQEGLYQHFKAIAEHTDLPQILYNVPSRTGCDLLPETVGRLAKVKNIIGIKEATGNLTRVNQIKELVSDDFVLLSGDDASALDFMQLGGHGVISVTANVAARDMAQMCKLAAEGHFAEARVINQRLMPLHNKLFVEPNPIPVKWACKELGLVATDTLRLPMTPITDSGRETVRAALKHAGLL

Molecule | Kd [1] | stoichiometry N [2] | Kd [3] | Km (purified protein [4]) | kcat (purified protein [4]) | Km (purified protein [5]) | kcat (purified protein [5])
Ec-DHDPS (dimer) (from UniProt P0A6L2) | 76 nM | – | – | – | – | – | –
Streptococcus pneumoniae dihydrodipicolinate synthase (enzyme, UniProt Q97R25 1-311, looked up, Dihydrodipicolinate synthase (DHDPS, product of dapA) of Streptococcus pneumoniae; Homotetramer (dimer of 'tight' dimers) in solution and in the crystal; also called Sp-DHDPS; sp-DHDPS) MSYQDLKKCKIITAFITPFHEDGSINFDAIPALIEHLLAHHTDGILLAGTTAESPTLTHDEELELFAAVQKVVNGRVPLIAGVGTNDTRDSIEFVKEVAEFGGFAAGLAIVPYYNKPSQEGMYQHFKTIADASDLPIIIYNIPGRVVVELTPETMLRLADHPNIIGVKECTSLANMAYLIEHKPEEFLIYTGEDGDAFHAMNLGADGVISVASHTNGDEMHEMFTAIAESDMKKAAAIQRKFIPKVNALFSYPSPAPVKAILNYMGFEAGPTRLPLVPAPEEDAKRIIKVVVDGDYEATKATVTGVLRPDY | – | 4 | 1.7 nM | 44 ± 3 µM | 22 s⁻¹ | 2550 ± 50 µM | 22 s⁻¹

Source: paper PMC3862839, “From Knock-Out Phenotype to Three-Dimensional Structure of a Promising Antibiotic Target from Streptococcus pneumoniae” (PLoS ONE, 2013)
